T1: Helicobacter pylori chemotaxis protein A (CheA), histidine kinase, recombinant (H. pylori (G27 strain), UniProt B5Z859 1-807)
T1 construct: CheA histidine kinase of H. pylori strain G27, Uniprot B5Z859; no limits stated; No cleavage of the tag is described for CheA; also called HpCheA; source: E. coli ArcticExpress DE3, purified (Ni-NTA, gel filtration)
T1 sequence: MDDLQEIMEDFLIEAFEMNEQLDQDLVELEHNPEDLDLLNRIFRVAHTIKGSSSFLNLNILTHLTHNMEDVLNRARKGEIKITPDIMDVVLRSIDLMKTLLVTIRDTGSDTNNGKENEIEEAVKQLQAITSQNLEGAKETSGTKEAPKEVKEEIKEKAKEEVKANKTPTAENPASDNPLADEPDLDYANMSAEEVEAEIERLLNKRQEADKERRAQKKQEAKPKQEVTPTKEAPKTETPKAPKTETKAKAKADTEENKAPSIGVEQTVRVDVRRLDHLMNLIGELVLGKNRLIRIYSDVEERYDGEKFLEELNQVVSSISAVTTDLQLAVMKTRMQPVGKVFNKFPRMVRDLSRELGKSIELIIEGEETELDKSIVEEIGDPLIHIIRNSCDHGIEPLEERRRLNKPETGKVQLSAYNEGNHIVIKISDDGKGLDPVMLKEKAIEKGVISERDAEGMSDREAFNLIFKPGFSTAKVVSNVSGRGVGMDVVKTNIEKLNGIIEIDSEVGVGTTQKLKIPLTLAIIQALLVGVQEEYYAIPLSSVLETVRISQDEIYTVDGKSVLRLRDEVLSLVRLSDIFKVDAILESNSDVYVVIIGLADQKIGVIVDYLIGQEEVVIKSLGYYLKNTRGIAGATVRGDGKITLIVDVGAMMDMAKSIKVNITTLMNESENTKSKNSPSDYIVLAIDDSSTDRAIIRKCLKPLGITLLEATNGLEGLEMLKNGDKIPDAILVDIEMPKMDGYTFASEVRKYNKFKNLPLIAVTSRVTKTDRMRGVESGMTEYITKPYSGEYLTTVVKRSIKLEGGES

T2: CheW-CheA complex (4 μM CheA with 40 μM CheW) (H. pylori (G27 strain) | H. pylori (SS1 …, UniProt B5Z859 1-807; O25152 1-165)
T2 sequence 1: T1 sequence
T2 sequence 2: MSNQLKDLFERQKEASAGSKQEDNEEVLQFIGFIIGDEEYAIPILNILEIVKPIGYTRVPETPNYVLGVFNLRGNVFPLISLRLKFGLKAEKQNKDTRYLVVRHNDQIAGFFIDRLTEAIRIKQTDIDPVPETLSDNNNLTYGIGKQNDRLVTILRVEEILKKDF

B1: Helicobacter pylori chemotaxis protein W (CheW), recombinant (natural protein)
chain: T2 sequence 2
notes: CheW scaffold protein of H. pylori strain SS1, Uniprot A0A1U9ITT8; no limits stated; source: E. coli ArcticExpress DE3, purified (Ni-NTA, gel filtration)
B2: Helicobacter pylori transducer-like protein D (TlpD), recombinant, with intact N-terminal His tag (receptor)
chain: not shown
notes: TlpD, cytosolic chemoreceptor of H. pylori strain SS1, Uniprot A0A1U9IUC7; Monomer-dimer equilibrium; copies 2 is the dimer form; also called HpTlpD; TlpD(+His); source: E. coli ArcticExpress DE3, purified (Ni-NTA, gel filtration)
B3: Helicobacter pylori TlpD lacking the N-terminal His tag, TlpD(-His) (receptor)
chain: not shown
notes: TlpD, cytosolic chemoreceptor of H. pylori strain SS1, Uniprot A0A1U9IUC7; no limits stated; Tag cut by TEV protease; source: E. coli ArcticExpress DE3, purified (Ni-NTA, TEV protease, repurified, gel filtration)

Key:
[1] = target: T1, Helicobacter pylori chemotaxis protein …; test: kinase activity titration (radio-ATP labelling of CheA autophosphorylation); CheW titrated against 4 μM CheA, 1 mM ATP; kobs values fit to a binding isotherm; kinetically defined, estimated KD; 50 mM Tris (pH 7.5), 100 mM NaCl, 10 mM MgCl2, 20°C; conditions: both partners purified
[2] = target: T1, Helicobacter pylori chemotaxis protein …; test: cell-based or functional assay
[3] = target: T2, CheW-CheA complex (4 μM CheA with 40 μM …); test: cell-based or functional assay
[4] = target: the molecule itself; test: AUC; interference; 1, 2 and 3 x 10 μM TlpD and 3 x 28 μM TlpD(-His) in PBS (pH 7), 1 mM TCEP, 20°C, 55,000 rpm; monomer and dimer peaks integrated (SedFit); dimer to monomers
[5] = target: T2, CheW-CheA complex (4 μM CheA with 40 μM …); test: kinase activity titration (radio-ATP labelling of CheA autophosphorylation); TlpD titrated against 4 μM CheA and 40 μM CheW, 1 mM ATP; kobs values fit to a binding isotherm; CheA-CheW complex approximated as 2 μM; kinetically defined, estimated KD; 50 mM Tris (pH 7.5), 100 mM NaCl, 10 mM MgCl2, 20°C; conditions: both partners purified

| Binder | Kd [1] [µM] | CheA autophosphorylation (radio-ATP labelling), titration of CheW against 4 μM CheA, maximal activation over CheA alone [2] [fold] | CheA autophosphorylation (radio-ATP labelling), titration of TlpD against 4 μM CheA and 40 μM CheW, maximal activation over CheA alone [3] [fold] | Kd [4] [µM] | stoichiometry N [4] | Kd [5] [µM] |
| --- | --- | --- | --- | --- | --- | --- |
| B1 | 14.6 | 2.7 | – | – | – | – |
| B2 | – | – | 14.6 | 0.189 | 2 | 15.2 |
| B3 | – | – | – | 0.0648 | 2 | – |
